Literature values as cited in article PMC3470569.

Molecular target: V-ATPase subunit a proximal lobe of N-terminal domain (Saccharomyces cerevisiae) (UniProt P32563)
Sequence (P32563 104-372): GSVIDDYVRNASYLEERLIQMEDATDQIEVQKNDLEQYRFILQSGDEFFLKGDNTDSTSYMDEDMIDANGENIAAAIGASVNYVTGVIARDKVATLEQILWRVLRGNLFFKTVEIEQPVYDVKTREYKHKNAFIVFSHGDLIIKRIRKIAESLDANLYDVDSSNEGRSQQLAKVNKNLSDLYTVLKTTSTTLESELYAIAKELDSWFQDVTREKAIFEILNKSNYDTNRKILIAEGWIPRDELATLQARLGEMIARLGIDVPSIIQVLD

Chain of V-ATPase subunit C Cfoot (P31412 158-277): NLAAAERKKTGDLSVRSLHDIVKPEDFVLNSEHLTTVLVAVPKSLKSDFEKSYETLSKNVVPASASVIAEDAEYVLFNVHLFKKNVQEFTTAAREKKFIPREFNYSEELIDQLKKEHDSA

In the case of “V-ATPase subunit C Cfoot (from UniProt P31412)”, the Kd is given as 30 µM.
